Results from US20260234232A1 (QUAERITE BIOPHARM RESEARCH BEIJING, published 2026).
Like-named read-outs stand apart in the source and are kept apart here.

Legend:
human VEGFA165 [1] = target: T1, human VEGFA165 (human, UniProt P15692-4 27-191); test: ELISA, coated human VEGFA165, anti-His detection
T1 construct: Bought protein from two suppliers, treated as one molecule; the supplier is named under assay; also called antigen VEGFA
Description: (§1) Antigen human VEGFA165 (label-free, purchased from Sino Biological, Cat. No.: HPLC-10008-HNAH, hereinafter referred to as VEGFA) was diluted with ELISA coating buffer to a final concentration of 0.3 μg/mL and added to a microplate at 100 μL/well for coating at 4° C. overnight. […] The solution used for antibody dilution was PBS containing 0.1% Tween-20 (pH 7.4), i.e., PBST. After being incubated at 37° C. for 1 h, the microplate was washed 3 times with PBST, and a dilution of His-Tag murine monoclonal antibody (purchased from Proteintech, Cat. No.: 66005-1-Ig) was added. The plate was further incubated at 37° C. for 1 h and washed again. Subsequently, a dilution of HRP-labeled goat anti-mouse IgG antibody (HRP-conjugated Affinipure Goat Anti-Mouse IgG (H+L), purchased from Proteintech, Cat. No.: SA00001-1) was added, and the plate was incubated at room temperature for 45 min. After the plate was washed, 100 μL of TMB (purchased from Tiangen Biotech, Cat. No.: PA107-01) was added to each well for color development at 37° C. for 15 min, followed by the addition of 50 μL of stopping solution. The absorbance at 450 nm (OD450) was measured using a microplate reader.

human VEGFA165 [2] = target: T1, human VEGFA165; test: ELISA, coated human VEGFA165, anti-His detection; remark: listed apart in the source
Description: as §1
The experimental procedure was the same as that described in “2.

human VEGFA165 [3] = target: T1, human VEGFA165; test: SPR Biacore 8K, VEGFA165 on CM5, nanobody analyte, 1:1 fit
Description: Using the Biacore 8K instrument (Cytiva), the antigen VEGFA165 (label-free, purchased from Sino Biological, Cat. No.: HPLC-10008-HNAH) as the ligand was coupled onto a CM5 chip through amino-coupling reagents (EDC and NHS), with the coupling level being about 400 RU. The mobile phase buffer was HBS-EP (0.01 M HEPES pH 7.4, 0.15 M NaCl, 3 mM EDTA, 0.005% v/v Tween 20) during the experiment. […] In the kinetic analysis, the binding time between the antigen and the antibody was 240 s, the dissociation time was 1500 s, and the flow rate was 30 μL/min. In a multi-cycle mode, the chip was regenerated with 100 mM hydrochloric acid.

human VEGFA165 [4] = target: T1, human VEGFA165; test: competitive ELISA, coated VEGFA, competitor VEGFR2-ECD-Fc 1 nM
Description: (§2) Antigen VEGFA was diluted with ELISA coating buffer (final concentration of […]) and added to a 96-well microplate at 100 μL/well for coating at 4° C. overnight. […] The plate was incubated at 37° C. for 1 h and washed 3 times with PBST. Subsequently, a dilution of HRP-labeled goat anti-human IgG antibody (HRP-conjugated Goat Anti-Human IgG, purchased from Proteintech, Cat. No.: A21050) was added, and the plate was further incubated at room temperature for 45 min. After the plate was washed, 100 μL of TMB (purchased from Tiangen Biotech, Cat. No.: PA107-01) was added to each well for color development at 37° C. for 15 min, followed by the addition of 50 μL of stopping solution. The absorbance at 450 nm (OD450) was measured using a microplate reader.

human VEGFA165 [5] = target: T1, human VEGFA165; test: ELISA, coated human VEGFA165, anti-His detection; remark: listed apart in the source
Description: as §1

human VEGFA165 [6] = target: T1, human VEGFA165; test: ELISA, coated human VEGFA165, anti-His detection; remark: listed apart in the source
Description: as §1

human VEGFA165 [7] = target: T1, human VEGFA165; test: competitive ELISA, coated VEGFA, competitor VEGFR2-ECD-Fc 1 nM; remark: listed apart in the source
Description: as §2

human VEGFA165 [8] = target: T1, human VEGFA165; test: as above; remark: listed apart in the source

T1 sequence (P15692 other isoform, or with tags, fused parts or gaps limits assumed): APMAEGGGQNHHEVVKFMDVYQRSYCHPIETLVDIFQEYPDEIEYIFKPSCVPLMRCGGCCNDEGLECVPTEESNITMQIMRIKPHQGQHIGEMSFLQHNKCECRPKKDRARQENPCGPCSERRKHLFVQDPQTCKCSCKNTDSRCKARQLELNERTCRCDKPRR

EC50 (human VEGFA165 [1]) [nM] | EC50 (human VEGFA165 [2]) [nM] | Kd (human VEGFA165 [3]) [nM] | koff (human VEGFA165 [3]) [s⁻¹] | kon (human VEGFA165 [3]) [M⁻¹ s⁻¹] | IC50 (human VEGFA165 [4]) [nM] | EC50 (human VEGFA165 [5]) [nM] | EC50 (human VEGFA165 [6]) [nM] | IC50 (human VEGFA165 [7]) [nM] | IC50 (human VEGFA165 [8]) [nM] | Maximum inhibition rate (%) (human VEGFA165 [8]) | Binder
0.09 | 0.09 | 0.0224 | 5.05e-05 | 2.25e+06 | 2.97 |  |  |  |  |  | 2V1-9GS (VHH, Tandem bivalent nanobody) QLQLVESGGGSVQPGGSLRLSCEVSGRTFSSYTMGWFRQAPGKEREFVVAISKGGYKYDSVSLEARFTISKDNTKNTVYLQMNSLKPEDTAVYYCAATRAYGSSRLRLADTYEYWGQGTQVTVSSGGGGSGGGSQLQLVESGGGSVQPGGSLRLSCEVSGRTFSSYTMGWFRQAPGKEREFVVAISKGGYKYDSVSLEARFTISKDNTKNTVYLQMNSLKPEDTAVYYCAATRAYGSSRLRLADTYEYWGQGTQVTVSS
0.25 |  | 0.0222 | 9.29e-05 | 4.18e+06 | 1.41 |  |  |  |  |  | 2V30-9GS (VHH, Tandem bivalent nanobody) QLQLVESGGGSVQPGGSLRLSCEVSGRTFSSYTMGWFRQAPGKGREFVVAISKGGYKYDAVSLEARFTISKDNTKNTVYLQMNSLKPEDTAVYYCAATRAYGSSRLRLAKTYEYWGQGTQVTVSSGGGGSGGGSQLQLVESGGGSVQPGGSLRLSCEVSGRTFSSYTMGWFRQAPGKGREFVVAISKGGYKYDAVSLEARFTISKDNTKNTVYLQMNSLKPEDTAVYYCAATRAYGSSRLRLAKTYEYWGQGTQVTVSS
0.3 |  |  |  |  | 3 |  |  |  |  |  | 2V36-9GS (VHH, Tandem bivalent nanobody) QLQLVESGGGSVQPGGSLRLSCEVSGRTFASYTMGWFRQAPGKEREFVVAISKGGYKYDSVSLEARFTISKDNTKNTVYLQMNSLKPEDTAVYYCAGTRAYGSSRLRLADTYEYWGQGTQVTVSSGGGGSGGGSQLQLVESGGGSVQPGGSLRLSCEVSGRTFASYTMGWFRQAPGKEREFVVAISKGGYKYDSVSLEARFTISKDNTKNTVYLQMNSLKPEDTAVYYCAGTRAYGSSRLRLADTYEYWGQGTQVTVSS
0.32 |  |  |  |  | 3.48 |  |  |  |  |  | 2V33-9GS (VHH, Tandem bivalent nanobody) QLQLVESGGGSVQPGGSLRLSCEVSGRTFSSYTMGWFRQAPGKEREFVVAISKGGYKYDSVSLEARFTISKDNTKNTVYLQMNSLKPEDTAVYYCAATRAYGSSRLRLAKTYEYWGQGTQVTVSSGGGGSGGGSQLQLVESGGGSVQPGGSLRLSCEVSGRTFSSYTMGWFRQAPGKEREFVVAISKGGYKYDSVSLEARFTISKDNTKNTVYLQMNSLKPEDTAVYYCAATRAYGSSRLRLAKTYEYWGQGTQVTVSS
0.24 | 0.24 |  |  |  | 2.07 | 0.22 | 0.25 | 3.61 | 3.13 | 88.4 | 2V15-9GS (VHH, Tandem bivalent nanobody) QLQLVESGGGSVQPGGSLRLSCEVSGRTFASYTMGWFRQAPGKEREFVVAISKGGYKYDSVSLEARFTISKDNTKNTVYLQMNSLKPEDTAVYYCAGTRAYGSSRLRLAETYEYWGQGTQVTVSSGGGGSGGGSQLQLVESGGGSVQPGGSLRLSCEVSGRTFASYTMGWFRQAPGKEREFVVAISKGGYKYDSVSLEARFTISKDNTKNTVYLQMNSLKPEDTAVYYCAGTRAYGSSRLRLAETYEYWGQGTQVTVSS
 | 1 |  |  |  |  |  |  | 6.65 |  |  | V15 (VHH, Monovalent nanobody; tag not described here, the ELISA detects a His tag) VHH: QLQLVESGGGSVQPGGSLRLSCEVSGRTFASYTMGWFRQAPGKEREFVVAISKGGYKYDSVSLEARFTISKDNTKNTVYLQMNSLKPEDTAVYYCAGTRAYGSSRLRLAETYEYWGQGTQVTVSS
